B1: recombinant full-length HMP-2 (natural protein, C. elegans, UniProt O44326 1-678, looked up)
chain: MLLHSTNSYSIFTDHEVETRTSRIRSAMFPDWIPPTSAAEATNSTTSIVEMMQMPTQQLKQSVMDLLTYEGSNDMSGLSLPDLVKLMCDHDESVVARAVHRAYMLSREDPNFFNAPGFDHRSFVEALMAASKSSNVNVRRNAIGALSHMSEQRGGPLLIFRSGGLAEIIRMLYDSLESVVHYAVTTLRNLLMHVSDSRAQARALNAVEALTPHLHKTNPKLLAQVADGLYFLLIDDAPSKITFLSLLGPQILVSILREYSDHRKLIYTVVRCIRSLSVCPSNKPALISLGCLPALYVELCTAKDERSQTAILVAMRNLSDSATNEENLTQLIIKLLEIIRVANDGMTACACGTLSNLTCNNTRNKQTVCSHGGIDALVTAIRRLPEVEEVTEPALCALRHCTARHSLAEEAQSELRFCQAFPVILDQLETLRTPVIKAALGVIRNSALLQTNLIELTQEQTANGHTAVSLTMDILRRAITAIEENPDIAVDGVPMWGVIEGAVSALHQLANHPAVAAACCDDIGQVGNPECPPFLDLLHRLLAHPRLGSMDDEVLEREILGLLYQLSKRPDGARAVESTGVSALLMESRGSQYKSVVTYANGVLSNLKRGDSAAIMNMSNSYDYEMSGSAADWQRDGLERELFAEMYPTNDGGHSESINMALNNSQMRPNHNWYDTDL

Legend:
[1] = biological target: HMR-1^T1215E,S1218E (polyhistidine-tagged HMR-1^1108–1223) (C. elegans); test: liposome co-flotation
[2] = biological target: HMR-1^S1212E (polyhistidine-tagged HMR-1^1108–1223) (C. elegans); test: liposome co-flotation
[3] = biological target: HMR-1^S1212E,T1215E,S1218E (polyhistidine-tagged HMR-1^1108–1223) (C. elegans); test: liposome co-flotation
[4] = biological target: CK1-phosphorylated HMR-1^1108–1223 (polyhistidine-tagged) (C. elegans); test: liposome co-flotation
SEC-MALS = biological target: the molecule itself; test: SEC-MALS

Molecule	fold increase in HMP-1/HMP-2 binding against unmodified HMR-1^1108–1223 [1] [fold]	fold increase in HMP-1/HMP-2 recovery against unmodified HMR-1^1108–1223 [2] [fold]	fold increase in HMP-1/HMP-2 association against unmodified HMR-1^1108–1223 [3] [fold]	fold enhancement in HMP-1/HMP-2 recovery against unphosphorylated HMR-1 [4] [fold]	stoichiometry N (SEC-MALS)
HMP-1/HMP-2 complex (untagged, purified) (from UniProt P90947 1-927; O44326 1-678)	1.4	1.8	2.2	6	–
B1	–	–	–	–	2

Reference: article PMC4663164 (The Biochemical journal, 2015)
